{
  "source": "patent US6344321",
  "target": "HGF (hepatocyte growth factor/scatter factor) (UniProt P14210+P14210)",
  "sequence (P14210 32-494, chain 1 of 2)": "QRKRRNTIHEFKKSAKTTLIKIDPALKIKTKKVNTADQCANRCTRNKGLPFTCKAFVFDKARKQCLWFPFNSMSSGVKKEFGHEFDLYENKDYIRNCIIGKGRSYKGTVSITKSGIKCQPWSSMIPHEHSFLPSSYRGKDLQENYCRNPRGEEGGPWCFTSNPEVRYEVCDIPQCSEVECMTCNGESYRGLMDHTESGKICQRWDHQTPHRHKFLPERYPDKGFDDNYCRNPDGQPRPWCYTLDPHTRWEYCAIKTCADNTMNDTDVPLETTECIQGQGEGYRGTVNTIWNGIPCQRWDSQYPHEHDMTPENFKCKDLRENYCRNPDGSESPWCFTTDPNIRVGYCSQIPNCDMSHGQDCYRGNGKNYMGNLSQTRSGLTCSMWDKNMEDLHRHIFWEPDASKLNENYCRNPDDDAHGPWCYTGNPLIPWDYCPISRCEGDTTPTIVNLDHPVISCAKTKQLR",
  "sequence (P14210 495-728, chain 2 of 2)": "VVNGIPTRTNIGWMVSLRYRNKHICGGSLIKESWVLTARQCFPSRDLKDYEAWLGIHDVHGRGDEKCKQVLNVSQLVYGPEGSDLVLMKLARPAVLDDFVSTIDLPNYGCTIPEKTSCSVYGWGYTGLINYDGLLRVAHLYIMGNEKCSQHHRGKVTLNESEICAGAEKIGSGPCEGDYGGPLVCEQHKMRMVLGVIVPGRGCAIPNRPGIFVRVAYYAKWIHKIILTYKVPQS",
  "assay": "filter",
  "details": "2'-F pyrimidines",
  "data": [
    {"sequence": "GGAGAGNUCCUAUUUAUGACAUCCCAUGCCCCCA [Tr65]", "values": [
      {"measurement": "Kd", "setting": "one or two 5' G, one N in printed sequence", "result": 1.4, "unit": "nM"}
    ]},
    {"sequence": "GGGAGGACGAUGCGGNNNNNNNNNNNNNNNNNNNNNNNNNNNNNNCAGACGACUCGCCCGA [random 30N7 pool]", "values": [
      {"measurement": "Kd", "setting": "random pool, 550 nM with competitor tRNA", "result": 1.6, "unit": "nM"}
    ]}
  ]
}
